Laboratory results published in patent EP1899377B1.

Target: GST-human NOGO-A56 (human) (UniProt Q9NQC3)
Test: SPR (Biacore T100), reverse format: antibody captured on Protein A, human NOGO 5+6 GST as analyte, 1:1 model; mean (SD) of 5 or 6 runs

Chain of GST-human NOGO-A56 (human) (Q9NQC3 586-785, form in doubt): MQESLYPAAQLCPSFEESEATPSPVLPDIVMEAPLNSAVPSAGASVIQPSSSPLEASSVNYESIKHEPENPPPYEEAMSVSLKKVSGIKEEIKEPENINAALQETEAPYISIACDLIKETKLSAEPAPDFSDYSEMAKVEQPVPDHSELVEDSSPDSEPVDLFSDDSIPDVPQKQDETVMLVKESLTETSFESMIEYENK

Work on 11C7 (chimeric version) (antibody) yielded a Kd of 0.42 nM, a koff of 0.000117 s⁻¹ and a kon of 285000 M⁻¹ s⁻¹.
